Reference: patent publication US20100209436

What was measured:
[1] = system: human OPA1 splice variant 7
[2] = system: human OPA1 splice variant 4
[3] = system: human OPA1 splice variant 8 (A210V polymorphism)
Sequence of human OPA1 splice variant 8 (A210V polymorphism) (chain, as listed by the source A210V): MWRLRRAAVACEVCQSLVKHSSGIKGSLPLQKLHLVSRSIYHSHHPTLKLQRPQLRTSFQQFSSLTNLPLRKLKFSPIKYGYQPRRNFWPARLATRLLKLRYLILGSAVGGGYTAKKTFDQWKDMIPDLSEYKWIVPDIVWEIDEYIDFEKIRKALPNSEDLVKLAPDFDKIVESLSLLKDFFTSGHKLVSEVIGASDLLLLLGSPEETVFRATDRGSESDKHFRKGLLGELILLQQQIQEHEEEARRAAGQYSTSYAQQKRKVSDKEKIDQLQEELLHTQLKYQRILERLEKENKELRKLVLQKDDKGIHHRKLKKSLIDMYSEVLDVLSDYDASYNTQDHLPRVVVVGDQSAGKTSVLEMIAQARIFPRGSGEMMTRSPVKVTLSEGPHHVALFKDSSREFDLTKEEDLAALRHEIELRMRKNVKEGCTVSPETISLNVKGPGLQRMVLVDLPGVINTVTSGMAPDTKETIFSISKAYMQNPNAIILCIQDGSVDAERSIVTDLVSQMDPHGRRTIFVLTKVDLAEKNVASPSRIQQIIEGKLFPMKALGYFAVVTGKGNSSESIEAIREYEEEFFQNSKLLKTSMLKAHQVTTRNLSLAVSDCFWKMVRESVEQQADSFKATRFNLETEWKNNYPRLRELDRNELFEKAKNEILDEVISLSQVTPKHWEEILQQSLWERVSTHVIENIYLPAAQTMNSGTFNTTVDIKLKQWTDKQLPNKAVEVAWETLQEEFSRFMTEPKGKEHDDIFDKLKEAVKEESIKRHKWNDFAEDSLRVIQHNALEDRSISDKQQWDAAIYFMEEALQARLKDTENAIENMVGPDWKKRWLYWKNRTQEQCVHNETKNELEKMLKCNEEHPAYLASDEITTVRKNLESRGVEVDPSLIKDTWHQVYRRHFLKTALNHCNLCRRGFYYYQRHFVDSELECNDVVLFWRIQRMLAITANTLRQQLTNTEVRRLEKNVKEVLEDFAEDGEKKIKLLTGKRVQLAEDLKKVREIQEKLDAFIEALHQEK

Sequence of human OPA1 splice variant 7 (chain, as listed by the source mutant): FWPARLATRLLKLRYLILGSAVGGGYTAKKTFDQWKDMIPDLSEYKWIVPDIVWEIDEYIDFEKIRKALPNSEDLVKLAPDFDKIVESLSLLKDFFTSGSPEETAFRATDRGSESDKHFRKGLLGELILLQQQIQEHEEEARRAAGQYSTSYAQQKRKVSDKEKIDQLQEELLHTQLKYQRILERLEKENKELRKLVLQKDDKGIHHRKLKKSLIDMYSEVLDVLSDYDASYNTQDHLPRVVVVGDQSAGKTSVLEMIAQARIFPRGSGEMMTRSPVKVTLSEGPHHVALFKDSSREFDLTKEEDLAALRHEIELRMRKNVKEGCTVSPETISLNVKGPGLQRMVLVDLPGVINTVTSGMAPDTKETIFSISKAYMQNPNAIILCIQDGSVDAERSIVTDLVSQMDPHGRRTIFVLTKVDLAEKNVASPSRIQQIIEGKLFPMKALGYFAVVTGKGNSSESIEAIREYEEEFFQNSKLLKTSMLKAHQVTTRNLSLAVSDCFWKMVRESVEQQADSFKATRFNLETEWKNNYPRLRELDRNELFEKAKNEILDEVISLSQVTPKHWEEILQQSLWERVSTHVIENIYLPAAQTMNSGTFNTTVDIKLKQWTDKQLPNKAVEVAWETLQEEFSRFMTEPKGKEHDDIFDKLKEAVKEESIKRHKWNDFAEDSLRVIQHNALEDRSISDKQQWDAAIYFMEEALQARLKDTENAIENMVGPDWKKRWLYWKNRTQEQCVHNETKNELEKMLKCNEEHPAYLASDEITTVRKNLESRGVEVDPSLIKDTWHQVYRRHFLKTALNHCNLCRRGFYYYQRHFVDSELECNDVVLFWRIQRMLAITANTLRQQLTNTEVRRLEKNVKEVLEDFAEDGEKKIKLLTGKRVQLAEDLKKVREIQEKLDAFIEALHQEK
Sequence of human OPA1 splice variant 4 (chain, as listed by the source mutant): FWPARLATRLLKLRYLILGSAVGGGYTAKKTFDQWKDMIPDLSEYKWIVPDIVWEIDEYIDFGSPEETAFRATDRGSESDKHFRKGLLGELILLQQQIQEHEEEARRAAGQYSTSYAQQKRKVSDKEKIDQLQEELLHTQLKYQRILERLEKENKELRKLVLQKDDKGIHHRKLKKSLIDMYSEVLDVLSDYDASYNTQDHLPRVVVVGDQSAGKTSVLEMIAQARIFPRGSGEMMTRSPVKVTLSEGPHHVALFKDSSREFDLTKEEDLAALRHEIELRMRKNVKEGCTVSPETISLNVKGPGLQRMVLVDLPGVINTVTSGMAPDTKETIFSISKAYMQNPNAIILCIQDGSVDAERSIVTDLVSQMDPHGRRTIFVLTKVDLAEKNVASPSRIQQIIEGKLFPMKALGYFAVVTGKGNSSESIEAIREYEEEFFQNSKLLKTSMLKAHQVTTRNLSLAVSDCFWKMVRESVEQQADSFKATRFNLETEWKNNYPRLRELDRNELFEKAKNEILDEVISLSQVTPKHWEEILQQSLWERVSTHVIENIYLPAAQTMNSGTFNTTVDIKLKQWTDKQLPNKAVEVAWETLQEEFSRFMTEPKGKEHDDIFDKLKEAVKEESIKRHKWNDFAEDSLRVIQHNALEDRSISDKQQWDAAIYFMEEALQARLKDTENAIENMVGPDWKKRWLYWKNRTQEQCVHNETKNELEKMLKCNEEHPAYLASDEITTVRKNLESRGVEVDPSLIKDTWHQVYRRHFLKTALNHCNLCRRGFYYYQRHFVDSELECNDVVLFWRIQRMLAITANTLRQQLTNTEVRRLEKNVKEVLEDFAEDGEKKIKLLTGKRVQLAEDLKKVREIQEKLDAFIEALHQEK

Substance | OPA1 processing (western blot, Δyta10Δyta12 yeast) [1] | OPA1 processing (western blot, Δyta10Δyta12 yeast) [2] | OPA1 processing (western blot, Δyta10Δyta12 yeast) [3]
Afg3l1^E567Q/paraplegin^E575Q complex (murine, both subunits proteolytically inactive) | small OPA1 isoforms were not detected when both, Afg 3l1 and paraplegin, or Afg 3l2 and paraplegin, contained point mutations in their proteolytic centres |  | 
Afg3l2^E574Q/paraplegin^E575Q complex (murine, both subunits proteolytically inactive) | small OPA1 isoforms were not detected when both, Afg 3l1 and paraplegin, or Afg 3l2 and paraplegin, contained point mutations in their proteolytic centres |  | 
hetero-oligomeric Afg3l1^E567Q/paraplegin complex (murine) | Slight OPA1 processing, in particular formation of S3, was detectable with both the Afg3l2^E567Q/paraplegin complex and the Afg3l1^E567Q/paraplegin complex | splice variant 4 was processed only to a very minor extent by the Afg3l2^E567Q/paraplegin complex but not by the Afg3l1^E567Q/paraplegin complex | A similar dependency was observed for splice variant 8
hetero-oligomeric Afg3l2^E574Q/paraplegin complex (murine) | Slight OPA1 processing, in particular formation of S3, was detectable with both the Afg3l2^E567Q/paraplegin complex and the Afg3l1^E567Q/paraplegin complex | splice variant 4 was processed only to a very minor extent by the Afg3l2^E567Q/paraplegin complex | A similar dependency was observed for splice variant 8
homo-oligomeric murine Afg3l2 complex (Yta10 (1-61)-Afg3l2 (36-802)-HA) | expression of each of the murine subunits, Afg3l2 or Afg3l1, in Δyta10Δyta12 cells promoted OPA1 processing; expression of Afg3l2 preferentially led to the formation of the S3 isoform | Afg3l1 and Afg3l2 complexes mediated processing of OPA1 splice variants 4 and 8 in a similar manner | Afg3l1 and Afg3l2 complexes mediated processing of OPA1 splice variants 4 and 8 in a similar manner
proteolytically inactive murine Afg3l1^E567Q (Yta10 (1-61)-Afg3l1^E567Q (25-789)-Myc) | Cleavage was abolished when point mutations were introduced in the proteolytic center of Afg3l1 or Afg3l2. |  | 
proteolytically inactive murine Afg3l2^E574Q (Yta10 (1-61)-Afg3l2^E574Q (36-802)-HA) | Cleavage was abolished when point mutations were introduced in the proteolytic center of Afg3l1 or Afg3l2. |  | 
